From IntAct's records for PubMed 37595036

B1: CDK5 regulatory subunit-associated protein 3 (Homo sapiens), Q96JB5 (parent)
chain: MEDHQHVPIDIQTSKLLDWLVDRRHCSLKWQSLVLTIREKINAAIQDMPESEEIAQLLSGSYIHYFHCLRILDLLKGTEASTKNIFGRYSSQRMKDWQEIIALYEKDNTYLVELSSLLVRNVNYEIPSLKKQIAKCQQLQQEYSRKEEECQAGAAEMREQFYHSCKQYGITGENVRGELLALVKDLPSQLAEIGAAAQQSLGEAIDVYQASVGFVCESPTEQVLPMLRFVQKRGNSTVYEWRTGTEPSVVERPHLEELPEQVAEDAIDWGDFGVEAVSEGTDSGISAEAAGIDWGIFPESDSKDPGGDGIDWGDDAVALQITVLEAGTQAPEGVARGPDALTLLEYTETRNQFLDELMELEIFLAQRAVELSEEADVLSVSQFQLAPAILQGQTKEKMVTMVSVLEDLIGKLTSLQLQHLFMILASPRYVDRVTEFLQQKLKQSQLLALKKELMVQKQQEALEEQAALEPKLDLLLEKTKELQKLIEADISKRYSGRPVNLMGTSL

Variants of: B1
Conditions: with ufc1_human UFC1, Q9Y3C8
Sequence of ufc1_human UFC1, Q9Y3C8 (Q9Y3C8 whole entry): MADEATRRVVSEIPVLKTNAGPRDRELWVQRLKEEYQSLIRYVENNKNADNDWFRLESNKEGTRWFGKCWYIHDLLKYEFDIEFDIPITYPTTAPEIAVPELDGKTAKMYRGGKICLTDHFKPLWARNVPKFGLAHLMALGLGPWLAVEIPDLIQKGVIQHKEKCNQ

Variant | effect of a mutation on the interaction
I267A;W269A | decreasing interaction strength
